This is an account of results in patent US20170037124A1 (Regeneron, published 2017).

T1: monkey ANGPTL8 expressed with C-terminal mouse IgG2a Fc tag (MfANGPTL8-mFc; SEQ ID NO: 341) (cynomolgus monkey)
T1 construct: also called cynomolgus monkey ANGPTL8
T1 chain: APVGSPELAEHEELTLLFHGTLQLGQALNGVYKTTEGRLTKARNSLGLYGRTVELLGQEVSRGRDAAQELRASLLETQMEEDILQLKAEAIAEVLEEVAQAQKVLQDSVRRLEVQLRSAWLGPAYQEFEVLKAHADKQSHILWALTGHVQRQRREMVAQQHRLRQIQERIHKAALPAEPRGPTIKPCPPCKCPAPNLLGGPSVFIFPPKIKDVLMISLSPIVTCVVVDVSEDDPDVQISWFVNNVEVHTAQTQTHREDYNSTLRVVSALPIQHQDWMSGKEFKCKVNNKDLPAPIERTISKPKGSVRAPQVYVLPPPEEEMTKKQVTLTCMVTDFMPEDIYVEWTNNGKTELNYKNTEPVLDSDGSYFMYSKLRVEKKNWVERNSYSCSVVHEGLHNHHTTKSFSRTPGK

T2: human ANGPTL8 expressed with C-terminal mouse IgG2a Fc tag (hANGPTL8-mFc; SEQ ID NO: 340) (human)
T2 construct: also called Angiopoietin-like protein 8
T2 chain: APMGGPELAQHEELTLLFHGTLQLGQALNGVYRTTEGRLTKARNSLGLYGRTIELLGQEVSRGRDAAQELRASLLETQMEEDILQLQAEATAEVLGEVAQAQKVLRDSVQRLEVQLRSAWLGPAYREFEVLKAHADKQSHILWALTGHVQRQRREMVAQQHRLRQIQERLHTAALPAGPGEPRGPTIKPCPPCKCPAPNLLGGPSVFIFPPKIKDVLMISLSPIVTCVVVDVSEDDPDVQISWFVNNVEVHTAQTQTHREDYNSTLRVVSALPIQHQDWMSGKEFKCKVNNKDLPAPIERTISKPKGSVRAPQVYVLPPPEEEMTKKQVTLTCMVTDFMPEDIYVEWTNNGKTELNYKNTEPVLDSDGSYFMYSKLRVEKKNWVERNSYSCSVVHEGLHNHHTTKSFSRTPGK

T3: human ANGPTL8 peptide (hANGPTL8 peptide, SEQ ID NO: 337) (human)
T3 construct: also called N-terminal region ANGPTL8 peptide
T3 peptide: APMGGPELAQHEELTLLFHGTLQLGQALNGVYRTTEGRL

T4: peptide from the N-terminal coiled-coil region of human ANGPTL4 (hANGPTL4 peptide, SEQ ID NO: 339) (human)
T4 peptide: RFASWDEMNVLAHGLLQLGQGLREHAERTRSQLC

T5: peptide from the N-terminal coiled-coil region of human ANGPTL3 (hANGPTL3 peptide, SEQ ID NO: 338) (human)
T5 construct: also called hANGPTL3 shift peptide
T5 peptide: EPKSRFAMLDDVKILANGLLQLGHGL

B1: H4H15345P (antibody, human IgG4, V domains shown)
VH: EVQLVESGGGLVQPGGSLRLSCAASGFTFSTYAMSWVRQAPGKGLEWVSVISGSFISTYYADSVKGRFTISRDNSKNTLYLQMTSLRAEDTAVYYCAKNSPFDYWGQGTLVTVSS
VL: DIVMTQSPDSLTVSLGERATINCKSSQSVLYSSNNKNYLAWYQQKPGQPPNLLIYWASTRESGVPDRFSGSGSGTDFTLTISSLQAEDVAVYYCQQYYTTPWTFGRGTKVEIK
notes: H4H prefix: human IgG4 Fc
B2: H4H15318P (antibody, human IgG4, V domains shown)
VH: QVQLVESGGGVVQPGRSLRLSCTASGFTFGNFGIHWVRQAPGKGLEWVAVISYDGTDKFYADPVKGRFIISRDNSMNILYLQMNSLRAEDTAVYYCAKDGEMELRGYYYYYGMDVWGQGTTVTVSS
VL: DIQMTQSPSSVSASVGDRVTITCRASQGINTWLAWYQQKPGTAPKLLIFAASSLESGVPSRFSGSGFGTDFTLTISSLQSEDLATYFCQQVHSPPYTFGQGTKLEIK
notes: H4H prefix: human IgG4 Fc
B3: H4H15319P (antibody, human IgG4, V domains shown)
VH: EVQLVESGGGVVRPGGSLRLSCAASGFTVDDYDMSWVRQTPGKGLEWISGINWNGGNTGYADSVKGRFIISRDSAKNSLFLQMNSLRAEDTALYHCWGAIGAFDIWGQGTMVTVSS
VL: DIVMTQSPLSSPVTLGQPASISCRSSQSLVHSDGGTYLSWLQQRPGQPPRLLIYKIFNRFSGVPDRFSGSGAGTDFTLRISRVEAEDVGVYYCMQTTQFPLTFGGGTKVEIK
notes: H4H prefix: human IgG4 Fc
B4: H4H15314P2 (antibody, human IgG4, V domains shown)
VH: QVQLVQSGAEVKKPGASVKVSCKASGYTFTSYDINWVRQATGQGLEWMGWMNPNGDNTGYAQKFQGRVTMTGDTSISTAYMELSSLRSEDTAVYYCAREGIWGFDPWGQGTLVTVSS
VL: DIQMTQSPSSLSASVGDRVTITCRASQDIRNDLGWYQQKPGKAPKRLIYAASSLQSGVPSRFSGSGSGTEFTLTISSLQPEDFATFYCLQHNTFPRTFGQGTKVEIK
notes: H4H prefix: human IgG4 Fc
B5: H4H15350P2 (antibody, human IgG4, V domains shown)
VH: EVQLVESGGGLVQPGGSLRLSCAASGFTFSSFRMTWVRQAPGKGLEWVANIKQDGSEKYYVDSVKGRFTISRDNAKNSLYLQMNSLRAEDTAVYYCARGGGIAAYWGQGTLVTVSS
VL: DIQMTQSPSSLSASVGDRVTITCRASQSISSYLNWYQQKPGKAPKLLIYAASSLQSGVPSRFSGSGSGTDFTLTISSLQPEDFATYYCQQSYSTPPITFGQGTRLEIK
notes: H4H prefix: human IgG4 Fc
B6: H4H15323P (antibody, human IgG4, V domains shown)
VH: EVQLVESGGGLVQPGGSLRLSCAASGFTFSSYAMTWVRQAPGKGLEWVSAISGSGGSTYYTDSVKGRFTLSRDNSKNTLYLQMNSLRAEDTAVYYCAKSDYSNTIYWYYGMDVWGQGTTVTVSS
VL: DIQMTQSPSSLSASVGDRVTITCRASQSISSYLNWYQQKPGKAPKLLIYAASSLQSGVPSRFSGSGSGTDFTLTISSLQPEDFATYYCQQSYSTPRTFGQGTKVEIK
notes: H4H prefix: human IgG4 Fc

In the first assay the target is T1, monkey ANGPTL8 expressed with …. Description: BLI Octet, captured antigen, 100 nM mAb, 25C. Here is the method:
(§1) Binding of ANGPTL8 antibodies to human and monkey ANGPTL8 proteins was investigated using Bio-layer Interferometry with an Octet HTX biosensor platform (ForteBio, A Division of Pall Life Sciences). All experiments were performed at 25° C. in 10 mM HEPES pH 7.4, 150 mM NaCl, 0.05% v/v Surfactant Tween-20, and 1 mg/ml BSA with the reaction multiwell plate agitated at 1000 rpm. Approximately 1.6 nm of human ANGPTL8 produced with a C-terminal mouse IgG2a Fc tag (hANGPTL8-mFc; SEQ ID NO: 340) or cynomolgus monkey ANGPTL8 produced with a C-terminal mouse IgG2a Fc tag (MfANGPTL8-mFc; SEQ ID NO: 341) was captured onto anti-mFc (AMC) Octet biosensors by submerging the sensors into wells containing 10 μg/mL of each protein for 4 minutes. Under the same conditions a negative control protein with the same mFc tag (hLDLR-mFc) was also coupled to the AMC sensor. All four sensors, […] and one blank, were then submerged into wells containing 100 nM of different ANGPTL8 monoclonal antibodies or an isotype control for 4 minutes.
On to B1, for which the “mAb Binding Response (nm)” value was found to be 0.31 nm.
Turning to B2, the “mAb Binding Response (nm)” value is 0.2 nm.
Turning to B3, the “mAb Binding Response (nm)” value was 0.26 nm.
The same measure, in the same setting: the figure for B4 is 0.01 nm; for B5 it is 0.2 nm.
On the same count and under the same terms, the figure for B6 is 0.15 nm.

The target of another assay is T6, negative control protein with the same mFc tag (hLDLR-mFc) (human; mouse, UniProt P01130 22-788, limits assumed).
T6 construct: also called Irrelevant control; not shown: mouse IgG2a Fc tag (same mFc tag as hANGPTL8-mFc)
T6 sequence (P01130 22-788 limits assumed): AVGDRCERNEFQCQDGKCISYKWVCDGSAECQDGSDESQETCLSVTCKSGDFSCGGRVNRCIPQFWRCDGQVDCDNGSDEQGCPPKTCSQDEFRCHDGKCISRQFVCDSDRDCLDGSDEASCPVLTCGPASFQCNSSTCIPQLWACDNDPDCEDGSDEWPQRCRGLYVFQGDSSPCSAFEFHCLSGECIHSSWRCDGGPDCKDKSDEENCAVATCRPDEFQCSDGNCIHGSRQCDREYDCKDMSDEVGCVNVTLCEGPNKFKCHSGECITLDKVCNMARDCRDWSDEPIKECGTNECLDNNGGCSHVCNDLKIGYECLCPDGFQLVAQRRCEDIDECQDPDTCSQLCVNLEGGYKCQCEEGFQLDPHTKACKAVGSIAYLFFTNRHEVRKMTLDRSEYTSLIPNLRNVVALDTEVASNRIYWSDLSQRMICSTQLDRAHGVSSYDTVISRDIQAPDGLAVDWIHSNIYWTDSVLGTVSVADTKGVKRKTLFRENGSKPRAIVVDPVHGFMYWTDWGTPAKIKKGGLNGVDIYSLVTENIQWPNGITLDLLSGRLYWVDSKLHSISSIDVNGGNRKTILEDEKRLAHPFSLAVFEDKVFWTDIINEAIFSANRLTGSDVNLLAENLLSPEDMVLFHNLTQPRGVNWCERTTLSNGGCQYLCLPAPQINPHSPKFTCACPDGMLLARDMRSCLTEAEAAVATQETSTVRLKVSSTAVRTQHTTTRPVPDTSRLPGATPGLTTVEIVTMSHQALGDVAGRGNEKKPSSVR
As to the kind of experiment: BLI Octet, captured antigen, 100 nM mAb, 25C. Here is the method: as §1
Consider B1, for which the “mAb Binding Response (nm)” value was determined as 0 nm.
For B2, the “mAb Binding Response (nm)” value worked out at 0.01 nm.
In the case of B3, the “mAb Binding Response (nm)” value was -0.01 nm.
As for B5, the “mAb Binding Response (nm)” value was 0 nm.
With B6, the “mAb Binding Response (nm)” value worked out at 0 nm.

The target in a further assay is T2, human ANGPTL8 expressed with C-terminal …. Description: BLI Octet, captured antigen, 100 nM mAb, 25C. The method, then: as §1
Take B1: the “mAb Binding Response (nm)” value came to 0.25 nm.
On to B2, for which the “mAb Binding Response (nm)” value is 0.19 nm.
For the molecule B3, the “mAb Binding Response (nm)” value worked out at 0.22 nm.
Regarding B4, the “mAb Binding Response (nm)” value came out at 0.04 nm.
For B5, the “mAb Binding Response (nm)” value came to 0.17 nm.
As to B6, the “mAb Binding Response (nm)” value was determined as 0.18 nm.

The target in a further assay is T3, human ANGPTL8 peptide (hANGPTL8 …). As to the kind of experiment: SPR, captured mAb, 500 nM peptide, 25C. The method, then:
(§2) The assay utilized a format where ANGPTL8 antibodies were captured on the sensor surface and peptides were injected over the antibody surface. Peptides from the N-terminal coiled-coil region of human ANGPTL3 (hANGPTL3 peptide, SEQ ID NO: 338) and human ANGPTL4 (hANGPTL4 peptide, SEQ ID NO: 339) were also included as controls. Also included was a control antibody (H4H268P from US2011/0159015A1) that binds to the ANGPTL4 peptide and a negative isotype control antibody. All binding studies were performed in 10 mM HEPES pH 7.4, 150 mM NaCl, 3 mM EDTA, and 0.05% v/v Surfactant Tween-20 (HBS-ET running buffer) at 25° C. The HCA sensor surface was derivatized via amine coupling to a monoclonal mouse anti-human Fc antibody (GE, # BR-1008-39), and to this surface was captured approximately 1000 RU of each ANGPTL8 antibody or control antibody. Peptide stock solutions were diluted in HBS-ET running buffer to 500 nM and injected over the antibody-captured surfaces for 4 minutes at a flow rate of 30 μL/minute followed by the dissociation of bound peptide in HBS-ET running buffer for 10 minutes.
(§3) Dissociative half-lives (t½) were calculated from kd as: […]
In the case of B1, the “500 nM hANGPTL8 peptide Bound (RU)” value was 37 RU, the koff amounted to 2.03e-05 s⁻¹ and the t½ worked out at 9.5 h.
B2: the “500 nM hANGPTL8 peptide Bound (RU)” value is 0 RU and the binding result is reported as “no binding (tested: <9 RU at 500 nM peptide)”.
The like results for B3 were, in that order, 0 RU and “no binding (tested: <9 RU at 500 nM peptide)”.
In the same order, the values of B4 are 0 RU and “no binding (tested: <9 RU at 500 nM peptide)”.
Turning to B5, the “500 nM hANGPTL8 peptide Bound (RU)” value was determined as 0 RU and the binding result is “no binding (tested: <9 RU at 500 nM peptide)”.
In the case of B6, the “500 nM hANGPTL8 peptide Bound (RU)” value was 0 RU and the binding result is recorded as “no binding (tested: <9 RU at 500 nM peptide)”.

The next assay concerns the target T4, peptide from the N-terminal coiled-coil …. Description: SPR, captured mAb, 500 nM peptide, 25C. Here is the method:
as §2, §3
For the molecule B1, the “500 nM hAngPTL4 peptide Bound (RU)” value was determined as 0 RU and the binding result is recorded as “no binding (tested: <9 RU at 500 nM peptide)”.
In the same order, the values of B2 are 0 RU and “no binding (tested: <9 RU at 500 nM peptide)”.
The like results for B3 were, in that order, 0 RU and “no binding (tested: <9 RU at 500 nM peptide)”.
For B4, the “500 nM hAngPTL4 peptide Bound (RU)” value turned out to be 1 RU and the binding result was “no binding (tested: <9 RU at 500 nM peptide)”.
For B5, the “500 nM hAngPTL4 peptide Bound (RU)” value was 0 RU and the binding result is listed as “no binding (tested: <9 RU at 500 nM peptide)”.
On to B6, for which the “500 nM hAngPTL4 peptide Bound (RU)” value was found to be 0 RU and the binding result was “no binding (tested: <9 RU at 500 nM peptide)”.

The next assay addresses T5, peptide from the N-terminal coiled-coil …. As to the kind of experiment: SPR, captured mAb, 500 nM peptide, 25C. Here is the method: as §2, §3
On to B1, for which the “500 nM hANGPTL3 peptide Bound (RU)” value worked out at 0 RU and the binding result is given as “no binding (tested: <9 RU at 500 nM peptide)”.
In the case of B2, the “500 nM hANGPTL3 peptide Bound (RU)” value stood at 0 RU and the binding result is “no binding (tested: <9 RU at 500 nM peptide)”.
As for B3, the “500 nM hANGPTL3 peptide Bound (RU)” value came to 0 RU and the binding result is “no binding (tested: <9 RU at 500 nM peptide)”.
On to B4, for which the “500 nM hANGPTL3 peptide Bound (RU)” value came to 0 RU and the binding result is listed as “no binding (tested: <9 RU at 500 nM peptide)”.
For the molecule B5, the “500 nM hANGPTL3 peptide Bound (RU)” value was 0 RU and the binding result is “no binding (tested: <9 RU at 500 nM peptide)”.
Regarding B6, the “500 nM hANGPTL3 peptide Bound (RU)” value came to 0 RU and the binding result is given as “no binding (tested: <9 RU at 500 nM peptide)”.

The next assay has as its target T7, anti-mFc (AMC) Octet biosensor, blank.
T7 construct: Sensor without captured protein, used as blank; also called Blank AMC Sensor
Description: BLI Octet, blank AMC sensor, 100 nM mAb, 25C. The method, then:
as §1
With B1, the “mAb Binding Response (nm)” value is 0.01 nm.
In the case of B2, the “mAb Binding Response (nm)” value was determined as 0.01 nm.
For B3, the “mAb Binding Response (nm)” value was 0 nm.
B4: the “mAb Binding Response (nm)” value amounted to 0 nm.
Consider B5, for which the “mAb Binding Response (nm)” value is -0.01 nm.
For the molecule B6, the “mAb Binding Response (nm)” value was found to be 0 nm.
